Experimental data taken from patent US20130244255A1 (published 2013).

What was measured:
[1] = target: T1, GPNMB (CG56972) as expressed by human cell lines (human, UniProt Q14956 23-492); experiment: cell-based or functional assay
T1 sequence: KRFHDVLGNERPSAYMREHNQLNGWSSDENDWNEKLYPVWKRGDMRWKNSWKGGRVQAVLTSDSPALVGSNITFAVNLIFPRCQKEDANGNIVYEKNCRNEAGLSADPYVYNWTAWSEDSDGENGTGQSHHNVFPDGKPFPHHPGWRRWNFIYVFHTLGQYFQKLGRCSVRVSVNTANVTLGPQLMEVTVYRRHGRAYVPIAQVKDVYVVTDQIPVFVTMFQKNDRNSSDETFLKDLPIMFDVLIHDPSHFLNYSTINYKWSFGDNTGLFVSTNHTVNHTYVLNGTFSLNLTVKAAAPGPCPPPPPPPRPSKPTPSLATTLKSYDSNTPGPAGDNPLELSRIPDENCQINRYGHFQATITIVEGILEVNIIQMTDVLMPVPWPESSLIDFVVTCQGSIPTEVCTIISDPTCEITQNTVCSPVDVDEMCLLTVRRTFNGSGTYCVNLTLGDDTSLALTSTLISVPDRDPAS

[2] = target: T1, GPNMB (CG56972) as expressed by human …; experiment: FACS on MEWO cells
[3] = target: T1, GPNMB (CG56972) as expressed by human …; experiment: FACS on HEMNLP cells
[4] = target: T1, GPNMB (CG56972) as expressed by human …; experiment: FACS on LOXIMVI cells
[5] = target: T1, GPNMB (CG56972) as expressed by human …; experiment: FACS on WM-266-4 cells
[6] = target: T1, GPNMB (CG56972) as expressed by human …; experiment: FACS on T98G cells, CR011 10 ug/mL
Experimental: (§1) Quantitative analysis of CG56972 expression on the surface of cell lines was determined by flow cytometry (FACS). […] Cells were fixed in 1% paraformaldehyde/PBS and examined on a Becton Dickinson FACSCalibur flow cytometer. Data analysis was performed with Becton Dickinson Cell Quest software version 3.3 and the geometric mean fluorescence intensity ratio (GMR) was determined for each cell type.

[7] = target: T1, GPNMB (CG56972) as expressed by human …; experiment: FACS on D450-MG cells, CR011 10 ug/mL
Experimental: as §1

[8] = target: T1, GPNMB (CG56972) as expressed by human …; experiment: FACS on SK-N-SH cells, CR011 10 ug/mL
Experimental: as §1

[9] = target: T1, GPNMB (CG56972) as expressed by human …; experiment: FACS on MOLT-4 cells, antibody 1 ug/mL
Experimental: Lymphoma or leukemia derived cells were washed twice with ice-cold FACS buffer and resuspended at 1 million cells per assay tube. […] Cells were then washed 2-3 times and resuspended in 1 mL of ice-cold FACS buffer. R-PE-conjugated goat anti-human antibody at 1:100 dilution was added and cells were incubated on ice for 30 min. Cells were washed 3 times with 1 mL of ice-cold FACS buffer, fixed with 0.5-1 mL of 1% formaldehyde in PBS and analyzed by Flow Cytometry.

B1: CR011 mAb 1.15.1 (IgG2) (antibody)
heavy: QVQLQESGPGLVKPSQTLSLTCTVSGGSISSFNYYWSWIRHHPGKGLEWIGYIYYSGSTYSNPSLKSRVTISVDTSKNQFSLTLSSVTAADTAVYYCARGYNWNYFDYWGQGTLVTVSSASTKGPSVFPLAPCSRSTSESTAALGCLVKDYFPEPVTVSWNSGALTSGVHTFPAVLQSSGLYSLSSVVTVPSSNFGTQTYTCNVDHKPSNTKVDKTVERKCCVECPPCPAPPVAGPSVFLFPPKPKDTLMISRTPEVTCVVVDVSHEDPEVQFNWYVDGVEVHNAKTKPREEQFNSTFRVVSVLTVVHQDWLNGKEYKCKVSNKGLPAPIEKTISKTKGQPREPQVYTLPPSREEMTKNQVSLTCLVKGFYPSDIAVEWESNGQPENNYKTTPPMLDSDGSFFLYSKLTVDKSRWQQGNVFSCSVMHEALHNHYTQKSLSLSPGK
VL: not shown
notes: also called CR011.1.15.1; CR011 IgG2
- killing of UACC-62 cells with saporin-conjugated secondary antibody (colony count) [1]: > 70%
- Geo Mean Ratio (relative to isotype) [2]: 14.1 ratio
- Geo Mean Ratio (relative to isotype) [3]: 10.2 ratio
- Geo Mean Ratio (relative to isotype) [4]: 1 ratio
- Geo Mean Ratio (relative to isotype) [5]: 13.6 ratio
- CR011 Fold Shift (GMR) [6]: 1.3 fold
- CR011 Fold Shift (GMR) [7]: 1.6 fold
- CR011 Fold Shift (GMR) [8]: 2 fold
- Geo Mean Ratio [9]: 6.2 ratio
